Assays:
Cyno TL1A (cyno) [1] = target: Cyno TL1A (cyno) (UniProt G7PRK8); assay: SPR, representative sensorgram with Cyno TL1A
human TL1A (human) [2] = target: human TL1A (human) (UniProt O95150); assay: selectivity ELISA: antibody pre-incubated with TL1A, inhibition of TL1A binding to plate-coated DcR3
human TL1A (human) [3] = target: human TL1A (human) (UniProt O95150); assay: SPR, representative sensorgram with Human TL1A
human TL1A (human) [4] = target: human TL1A (human) (UniProt O95150); assay: selectivity ELISA: antibody pre-incubated with TL1A, inhibition of TL1A binding to plate-coated DR3
human TL1A (human) [5] = target: human TL1A (human) (UniProt O95150); assay: SPR, mAb format, average
Cyno TL1A (cyno) [6] = target: Cyno TL1A (cyno) (UniProt G7PRK8); assay: SPR, mAb format, average
mouse TL1A (mouse) = mouse TL1A (mouse) (UniProt Q5UBV8); assay: SPR, mAb format, average
Chain of mouse TL1A (mouse) (Q5UBV8 76-252 V180M/M218T limits assumed): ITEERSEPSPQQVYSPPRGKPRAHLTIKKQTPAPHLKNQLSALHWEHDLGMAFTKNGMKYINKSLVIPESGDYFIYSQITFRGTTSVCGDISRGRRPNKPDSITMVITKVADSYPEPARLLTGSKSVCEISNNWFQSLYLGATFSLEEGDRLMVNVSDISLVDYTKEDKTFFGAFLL

Chain of human TL1A (human) (O95150 72-251 limits assumed): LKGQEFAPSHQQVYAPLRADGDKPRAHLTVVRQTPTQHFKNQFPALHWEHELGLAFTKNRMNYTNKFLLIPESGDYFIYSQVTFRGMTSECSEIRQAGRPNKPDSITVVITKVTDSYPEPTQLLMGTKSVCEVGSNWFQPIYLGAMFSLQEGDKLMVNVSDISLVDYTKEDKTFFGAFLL
Chain of Cyno TL1A (cyno) (G7PRK8 entry or part of it): as the sequence (O95150 72-251 limits assumed) above, with F39L, I78V counted along it

B1: Heron2B (antibody, INN chains, looked up, V domains shown)
VH: QVQLVQSGAEVKKPGASVKVSCKASGFDIQDTYMHWVKQRPGQGLEWMGRIDPASGHTKYDPKFQVRVTITRDTSTSTVYLELSSLRSEDTAVYYCARSGGLPDVWGQGTTVTVSS
VL: EIVLTQSPGTLSLSPGERATLSCRASSSVSYMYWYQQKPGQAPRPLIYATSNLASGIPDRFSGSGSGTDFTLTISRLEPEDFAVYYCQQWEGNPRTFGGGTKLEIK
**Q.** How did the Kd (Cyno TL1A (cyno) [1]) turn out when B1 was run?
**A.** The Kd was 0.114 nM.

**Q.** What about the IC50 (human TL1A (human) [2]) of the same binder?
**A.** The IC50 was 3.6 µg/mL.

**Q.** What about the Kd (human TL1A (human) [3]) of the same binder?
**A.** Its Kd is 0.339 nM.

**Q.** And the IC50 (human TL1A (human) [4])?
**A.** The IC50 was 6.3 µg/mL.

**Q.** And the Kd (human TL1A (human) [5])?
**A.** The Kd was 0.365 nM.

**Q.** What about the Kd (Cyno TL1A (cyno) [6]) of the same binder?
**A.** The Kd was 0.09 nM.

**Q.** And the Kd (mouse TL1A (mouse))?
**A.** Its Kd is 81900 nM.

— patent US20250109209A1
